Patent publication US20190352429A1 (published 2019)

Columns and labels:
[1] = biological target: T1, cMET extracellular domain (human, UniProt P08581 25-932); experiment: Octet BLI, protein A biosensors, extracellular domain as antigen
T1 construct: extracellular domain; also called human c-MET
Method: (§1) The affinity of BxM wildtype and MaB40 was analysed using an Octet system with biosensors coated with protein A. As antigens, the extracellular domains of cMET and EGFR were used. Three different concentrations of antibody were tested to determine the affinity.

[2] = biological target: T2, EGFR extracellular domain (human, UniProt P00533 25-645); experiment: as above
T2 construct: extracellular domain; also called human EGFR; epidermal growth factor receptor
Method: as §1

Kd [1] | Kd [2] | Binder
0.35 nM | 5.3 nM | BxM wt (B10v5 x hu225M SEED bispecific IgG without interface mutations) (bispecific antibody, By LC-ESI-MS the preparation held only 76% of the correctly paired form (12% + 12% light chain mispaired variants); also called BxM wildtype) heavy 1: not shown light 1: EPVLTQPPSVSVAPGETATIPCGGDSLGSKIVHWYQQRPGQAPLLVVYDDAARPSGIPERFSGSKSGTTATLTISSVEAGDEADYFCQVYDYHSDVEVFGGGTKLTVLGQPKAAPSVTLFPPSSEELQANKATLVCLISDFYPGAVTVAWKADSSPVKAGVETTTPSKQSNNKYAASSYLSLTPEQWKSHKSYSCQVTHEGSTVEKTVAPTECS heavy 2: EVQLVQSGAEVKKPGASVKVSCKASGFSLTNYGVHWMRQAPGQGLEWIGVIWSGGNTDYNTPFTSRVTITSDKSTSTAYMELSSLRSEDTAVYYCARALTYYDYEFAYWGQGTLVTVSSASTKGPSVFPLAPSSKSTSGGTAALGCLVKDYFPEPVTVSWNSGALTSGVHTFPAVLQSSGLYSLSSVVTVPSSSLGTQTYICNVNHKPSNTKVDKKVEPKSCDKTHTCPPCPAPELLGGPSVFLFPPKPKDTLMISRTPEVTCVVVDVSHEDPEVKFNWYVDGVEVHNAKTKPREEQYNSTYRVVSVLTVLHQDWLNGKEYKCKVSNKALPAPIEKTISKAKGQPREPQVYTLPPPSEELALNELVTLTCLVKGFYPSDIAVEWLQGSQELPREKYLTWAPVLDSDGSFFLYSILRVAAEDWKKGDTFSCSVMHEALHNHYTQKSLDRSPGK light 2: DIQMTQSPSSLSASVGDRVTITCRASQSIGTNIHWYQQKPGKAPKLLIKYASESISGVPSRFSGSGYGTDFTLTISSLQPEDVATYYCQQNYNWPTTFGQGTKVEIKRTVAAPSVFIFPPSDEQLKSGTASVVCLLNNFYPREAKVQWKVDNALQSGNSQESVTEQDSKDSTYSLSSTLTLSKADYEKHKVYACEVTHQGLSSPVTKSFNRGEC
0.42 nM | 2.9 nM | BxM MaB40 (B10v5 x hu225M SEED bispecific IgG with K26D in CH1 and T18R in CL of hu225M) (bispecific antibody, Only the correctly paired form was detected by LC-ESI-MS; also called mutant BxM MaB40) heavy 1: not shown light 1: EPVLTQPPSVSVAPGETATIPCGGDSLGSKIVHWYQQRPGQAPLLVVYDDAARPSGIPERFSGSKSGTTATLTISSVEAGDEADYFCQVYDYHSDVEVFGGGTKLTVLGQPKAAPSVTLFPPSSEELQANKATLVCLISDFYPGAVTVAWKADSSPVKAGVETTTPSKQSNNKYAASSYLSLTPEQWKSHKSYSCQVTHEGSTVEKTVAPTECS heavy 2: EVQLVQSGAEVKKPGASVKVSCKASGFSLTNYGVHWMRQAPGQGLEWIGVIWSGGNTDYNTPFTSRVTITSDKSTSTAYMELSSLRSEDTAVYYCARALTYYDYEFAYWGQGTLVTVSSASTKGPSVFPLAPSSKSTSGGTAALGCLVDDYFPEPVTVSWNSGALTSGVHTFPAVLQSSGLYSLSSVVTVPSSSLGTQTYICNVNHKPSNTKVDKKVEPKSCDKTHTCPPCPAPELLGGPSVFLFPPKPKDTLMISRTPEVTCVVVDVSHEDPEVKFNWYVDGVEVHNAKTKPREEQYNSTYRVVSVLTVLHQDWLNGKEYKCKVSNKALPAPIEKTISKAKGQPREPQVYTLPPPSEELALNELVTLTCLVKGFYPSDIAVEWLQGSQELPREKYLTWAPVLDSDGSFFLYSILRVAAEDWKKGDTFSCSVMHEALHNHYTQKSLDRSPGK light 2: DIQMTQSPSSLSASVGDRVTITCRASQSIGTNIHWYQQKPGKAPKLLIKYASESISGVPSRFSGSGYGTDFTLTISSLQPEDVATYYCQQNYNWPTTFGQGTKVEIKRTVAAPSVFIFPPSDEQLKSGRASVVCLLNNFYPREAKVQWKVDNALQSGNSQESVTEQDSKDSTYSLSSTLTLSKADYEKHKVYACEVTHQGLSSPVTKSFNRGEC
